In paper PMC10249358 (2023):
Where two headings read alike, the source gives them in different places. No end group written: not given here. *: point of attachment. FITC = O=C1OC2(c3ccc(O)cc3Oc3cc(O)ccc32)c2ccc(NC(=S)*)cc21

T1: radixin FERM domain (as used in FP) (human, UniProt P35241 5-295)
T1 chain: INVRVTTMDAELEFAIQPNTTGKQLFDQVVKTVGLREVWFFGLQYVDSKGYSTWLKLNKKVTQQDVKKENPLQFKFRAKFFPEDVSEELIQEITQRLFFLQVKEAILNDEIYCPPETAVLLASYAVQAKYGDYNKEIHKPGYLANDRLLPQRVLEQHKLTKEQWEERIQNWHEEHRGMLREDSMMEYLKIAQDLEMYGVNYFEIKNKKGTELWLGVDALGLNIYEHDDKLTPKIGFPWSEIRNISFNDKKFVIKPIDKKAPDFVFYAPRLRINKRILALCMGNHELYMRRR

T2: merlin FERM domain (human, UniProt P35240 22-312)
T2 chain: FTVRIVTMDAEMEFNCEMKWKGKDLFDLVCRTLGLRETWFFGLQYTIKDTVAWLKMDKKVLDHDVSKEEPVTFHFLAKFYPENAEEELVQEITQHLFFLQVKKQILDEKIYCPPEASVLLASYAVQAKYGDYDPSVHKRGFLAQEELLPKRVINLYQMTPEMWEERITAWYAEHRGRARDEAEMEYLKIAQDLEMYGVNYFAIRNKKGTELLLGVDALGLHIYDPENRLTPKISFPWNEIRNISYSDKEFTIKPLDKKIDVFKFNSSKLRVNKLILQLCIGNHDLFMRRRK


Legend:
Experiment in all cases: FP
[1] = target: T1, radixin FERM domain (as used in FP)
[2] = target: ezrin FERM domain (as used in FP) (UniProt P15311 2-296)
Sequence of ezrin FERM domain (as used in FP) (P15311 2-296): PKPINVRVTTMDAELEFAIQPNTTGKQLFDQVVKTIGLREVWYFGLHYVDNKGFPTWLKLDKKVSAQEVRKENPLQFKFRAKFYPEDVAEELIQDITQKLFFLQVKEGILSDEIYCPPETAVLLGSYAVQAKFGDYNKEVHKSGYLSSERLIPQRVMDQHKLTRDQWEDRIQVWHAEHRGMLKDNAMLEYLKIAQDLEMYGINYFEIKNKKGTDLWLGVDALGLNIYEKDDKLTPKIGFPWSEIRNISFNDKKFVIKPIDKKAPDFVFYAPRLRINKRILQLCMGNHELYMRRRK

[3] = target: T3, moesin FERM domain (UniProt P26038 2-295)
[4] = target: T2, merlin FERM domain
[5] = target: T3, moesin FERM domain; remark: listed apart in the source
[6] = target: T3, moesin FERM domain; remark: listed apart in the source

Binder | Kd [1] [nM] | Kd [2] [nM] | Kd [3] [nM] | Kd [4] [nM] | Kd [5] [nM] | Kd [6] [nM]
{FITC}-WSKKNELFSNL [FITC-EBP50(348–358) peptide] | 3200 | 3200 | 3000 | 1800 |  | 
{FITC}-YYSVNTFKEHHSTPTI [FITC-KIRREL3(637–652) peptide] | 1400 | 1400 | 80 |  |  | 
SYSVQTMETVPYQPFP [TBX4(428–443) peptide, unlabeled] |  |  |  |  | 1000 | 
TNGYYSVNTFKEHHSTPTI [KIRREL3(634–652) peptide, unlabeled, N-terminally extended] |  |  |  |  | 120 | 
FYDLWASDNPLDRPLV (also: FITC label, position not given here) [FITC-NOP53(192–207) peptide] | 3500 | 2400 | 710 | 17000 |  | 
PYTSYSVQTMETVPYQPFP [TBX4 peptide extended N-terminally with PYT] |  |  |  |  | 3200 | 
{FITC}-LEFADFYDFRSSYPDH [FITC-ZNF622(341–356) peptide] | 2500 | 1600 | 1000 | 4100 |  | 
YYSVNTFKEHHSTPTI [KIRREL3(637–652) peptide, unlabeled] |  |  |  |  | 90 | 
LEFADFYDFRSSYPDH [ZNF622(341–356) peptide, unlabeled] |  |  |  |  |  | 1400
{FITC}-THHKALQEIRNSLLPF [FITC-LATS1(73–88) peptide] | 1700 | 1200 | 1000 | 8500 |  | 
SYSVQTMETVPYQPFP (also: FITC label, position not given here) [FITC-TBX4(428–443) peptide] | 4600 | 4500 | 750 |  |  | 
